Positions count from the first letter of the chain named.
B1: 14L 72G 117I (protein, listed as Rattus norvegicus)
chain: AFDGTWKVDRNENLEKFMEKMGINVVKRKLGAHDNLKLTITQEGNKFTVKESSNFRNIDVVFELGVDFAYSGADGTELTGTWTMEGNKLVGKFKRVDNGKELIAVREISGNELIQTITYEGVEAKRIFKKE
modifications: PEPTIDE (1)...(131) wild-type rat intestinal fatty acid binding protein
B2: 11V, 72A (protein, listed as Rattus norvegicus)
chain: B1 chain with N11V, L14Y, G72A, I117Y
modifications: PEPTIDE (1)...(131) wild-type rat intestinal fatty acid binding protein
B3: 21I, 72A (protein, listed as Rattus norvegicus)
chain: B1 chain with L14Y, M21I, G72A, I117Y
modifications: PEPTIDE (1)...(131) wild-type rat intestinal fatty acid binding protein
B4: 11W, 72A (protein, listed as Rattus norvegicus)
chain: B1 chain with N11W, L14Y, G72A, I117Y
modifications: PEPTIDE (1)...(131) wild-type rat intestinal fatty acid binding protein
B5: 14L 72G (protein, listed as Rattus norvegicus)
chain: B1 chain with I117Y
modifications: PEPTIDE (1)...(131) wild-type rat intestinal fatty acid binding protein
B6: 78I, 72A (protein, listed as Rattus norvegicus)
chain: B1 chain with L14Y, G72A, L78I, I117Y
modifications: PEPTIDE (1)...(131) wild-type rat intestinal fatty acid binding protein
B7: 115N, 72A (protein, listed as Rattus norvegicus)
chain: B1 chain with L14Y, G72A, Q115N, I117Y
modifications: PEPTIDE (1)...(131) wild-type rat intestinal fatty acid binding protein
B8: 104Y, 72A (protein, listed as Rattus norvegicus)
chain: B1 chain with L14Y, G72A, A104Y, I117Y
modifications: PEPTIDE (1)...(131) wild-type rat intestinal fatty acid binding protein
B9: 78Y, 72A (protein, listed as Rattus norvegicus)
chain: B1 chain with L14Y, G72A, L78Y, I117Y
modifications: PEPTIDE (1)...(131) wild-type rat intestinal fatty acid binding protein
B10: 21V, 72A (protein, listed as Rattus norvegicus)
chain: B1 chain with L14Y, M21V, G72A, I117Y
modifications: PEPTIDE (1)...(131) wild-type rat intestinal fatty acid binding protein
B11: 106M, 72A (protein, listed as Rattus norvegicus)
chain: B1 chain with L14Y, G72A, R106M, I117Y
modifications: PEPTIDE (1)...(131) wild-type rat intestinal fatty acid binding protein
B12: 55I, 72A (protein, listed as Rattus norvegicus)
chain: B1 chain with L14Y, F55I, G72A, I117Y
modifications: PEPTIDE (1)...(131) wild-type rat intestinal fatty acid binding protein
B13: 38I 72G (protein, listed as Rattus norvegicus)
chain: B1 chain with L14Y, L38I, I117Y
modifications: PEPTIDE (1)...(131) wild-type rat intestinal fatty acid binding protein
B14: 115H, 72A (protein, listed as Rattus norvegicus)
chain: B1 chain with L14Y, G72A, Q115H, I117Y
modifications: PEPTIDE (1)...(131) wild-type rat intestinal fatty acid binding protein
B15: 104G, 72A (protein, listed as Rattus norvegicus)
chain: B1 chain with L14Y, G72A, A104G, I117Y
modifications: PEPTIDE (1)...(131) wild-type rat intestinal fatty acid binding protein
B16: 49D, 72A (protein, listed as Rattus norvegicus)
chain: B1 chain with L14Y, V49D, G72A, I117Y
modifications: PEPTIDE (1)...(131) wild-type rat intestinal fatty acid binding protein
B17: 82V, 72A (protein, listed as Rattus norvegicus)
chain: B1 chain with L14Y, G72A, W82V, I117Y
modifications: PEPTIDE (1)...(131) wild-type rat intestinal fatty acid binding protein
B18: 82F, 72A (protein, listed as Rattus norvegicus)
chain: B1 chain with L14Y, G72A, W82F, I117Y
modifications: PEPTIDE (1)...(131) wild-type rat intestinal fatty acid binding protein
B19: 78A, 72A (protein, listed as Rattus norvegicus)
chain: B1 chain with L14Y, G72A, L78A, I117Y
modifications: PEPTIDE (1)...(131) wild-type rat intestinal fatty acid binding protein
B20: 78V, 72A (protein, listed as Rattus norvegicus)
chain: B1 chain with L14Y, G72A, L78V, I117Y
modifications: PEPTIDE (1)...(131) wild-type rat intestinal fatty acid binding protein

experiment: Probe fluorescence ratio response to palmitic acid relative to ADIFAB2; assay type: binding; conditions: response relative to ADIFAB2
In short: (§1)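 Each fatty acid's response was expressed relative to ADIFAB2, the rI-FABP-L72A probe, as ΔR/ΔRreference. ΔR is the change in the background-corrected two-wavelength intensity ratio R=Fλ1/Fλ2 from its analyte-free baseline R0. Emission was read near about 420-480 nm for unbound and about 495-580 nm for FFA-bound probe.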

| Molecule | DR/DR PA |
| --- | --- |
| B1 | 0.231 |
| B2 | 0.732 |
| B3 | 0.162 |
| B4 | 0.199 |
| B5 | 0.334 |
| B6 | 0.748 |
| B7 | 0.558 |
| B8 | 0.140 |
| B9 | 0.520 |
| B10 | 0.462 |
| B11 | 0.183 |
| B12 | 0.774 |
| B13 | 0.419 |
| B14 | 0.514 |
| B15 | 0.650 |
| B16 | 0.161 |
| B17 | 0.345 |
| B18 | 0.223 |
| B19 | 0.190 |
| B20 | 0.615 |

experiment: Probe fluorescence ratio response to oleic acid relative to ADIFAB2; assay type: binding; conditions: response relative to ADIFAB2
In short: as §1

| Molecule | DR/DR OA |
| --- | --- |
| B1 | 0.395 |
| B2 | 0.552 |
| B3 | 0.310 |
| B4 | 0.227 |
| B5 | 0.730 |
| B6 | 0.923 |
| B7 | 0.711 |
| B8 | 0.236 |
| B9 | 0.845 |
| B10 | 0.739 |
| B11 | 0.510 |
| B12 | 0.901 |
| B13 | 0.861 |
| B14 | 0.675 |
| B15 | 0.691 |
| B16 | 0.316 |
| B17 | 0.461 |
| B18 | 0.403 |
| B19 | 0.350 |
| B20 | 0.864 |

experiment: Probe fluorescence ratio response to arachidonic acid relative to ADIFAB2; assay type: binding; conditions: arachidonic acid; response relative to ADIFAB2
In short: as §1

| Molecule | DR/DR AA |
| --- | --- |
| B1 | 0.787 |
| B2 | 0.932 |
| B3 | 0.531 |
| B4 | 0.430 |
| B5 | 0.873 |
| B6 | 1.138 |
| B7 | 0.918 |
| B8 | 0.364 |
| B9 | 1.172 |
| B10 | 0.939 |
| B11 | 0.554 |
| B12 | 1.079 |
| B13 | 0.964 |
| B14 | 0.891 |
| B15 | 0.866 |
| B16 | 0.308 |
| B17 | 0.757 |
| B18 | 1.029 |
| B19 | 0.433 |
| B20 | 1.093 |

experiment: Probe fluorescence ratio response to linoleic acid relative to ADIFAB2; assay type: binding; conditions: response relative to ADIFAB2
In short: as §1

| Molecule | DR/DR LA |
| --- | --- |
| B1 | 0.764 |
| B2 | 0.825 |
| B3 | 0.365 |
| B4 | 0.344 |
| B5 | 0.817 |
| B6 | 0.874 |
| B7 | 0.777 |
| B8 | 0.265 |
| B9 | 0.908 |
| B10 | 0.871 |
| B11 | 0.485 |
| B12 | 0.834 |
| B13 | 0.772 |
| B14 | 0.741 |
| B15 | 0.665 |
| B16 | 0.324 |
| B17 | 0.519 |
| B18 | 0.422 |
| B19 | 0.372 |
| B20 | 0.865 |

experiment: Probe fluorescence ratio response to linolenic acid relative to ADIFAB2; assay type: binding; conditions: response relative to ADIFAB2
In short: as §1

| Molecule | DR/DR LNA |
| --- | --- |
| B1 | 0.812 |
| B2 | 0.763 |
| B3 | 0.412 |
| B4 | 0.357 |
| B5 | 0.886 |
| B6 | 0.958 |
| B7 | 0.726 |
| B8 | 0.278 |
| B9 | 0.871 |
| B10 | 0.889 |
| B11 | 0.490 |
| B12 | 0.885 |
| B13 | 0.701 |
| B14 | 0.697 |
| B15 | 0.687 |
| B16 | 0.296 |
| B17 | 0.456 |
| B18 | 0.334 |
| B19 | 0.429 |
| B20 | 0.798 |

Reference: patent US20060257938A1, “Method of screening for drugs that block ligand binding to a lipid binding protein” (priority 2005, published 2006)
